Laboratory results taken from the supplement of paper PMC10126150.
± gives the standard deviation of the averaged measurements.

system: ATP; test: switch fluorescence ratio, 500 uM ATP over buffer (Cy3 cluster intensity, sum of 5 cycles each) (fold (ratio)); higher = stronger signal-on switching upon ATP binding; sequences stand for … in TCGTCGGCAGCGTCAGATGTGTATAAGAGACAGTTTTTTTTTTTTTTTTTTTTTTTTT…TC; conditions: aptamer strand: ATP DNA aptamer (quencher-CACCTGGGGGAGTATTGCGGAGGAAGG + anchor), 100 nM annealed; ATP concentration: 500 uM
Method in brief: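 Clusters carrying Cy3-labelled switching strands on a modified Illumina MiSeq flow-cell were annealed to 100 nM quencher-labelled ATP aptamer and imaged in selection buffer. They were imaged again after 15 min with 500 uM ATP at 22 °C, over five buffer/ATP cycles with NaOH stripping and re-annealing in between. For each cluster, the fluorescence ratio is the summed Cy3 intensity of the target cycles divided by that of the buffer cycles, averaged per switch-domain sequence. Clusters outside 100-1000 RFU were left out.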
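Note: ATP exposure 15 min at 22 °C before imaging.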

Row | Sequence | switch fluorescence ratio
1 | GGTGGTAAGA | 0.978 ± 0.074
2 | GGTGGTCGAG | 0.989 ± 0.02
3 | GGTGGTCGGT | 0.9787 ± 0.0066
4 | GGTGGTGGGA | 0.977 ± 0.04
5 | GGTGGTGGGG | 0.968 ± 0.03
6 | GGTGGTTGCA | 1 ± 0.024
7 | GGTGTACGGG | 0.987 ± 0.036
8 | GGTGTAGTAT | 0.9759 ± 0.008
9 | GGTGTATAA | 0.995 ± 0.032
10 | GGTGTATTTA | 1.02 ± 0.017
11 | GGTGTCAGCT | 0.967 ± 0.038
12 | GGTGTCCGGG | 0.9986 ± 0.0019
13 | GGTGTCGGGA | 0.9705 ± 0.009
14 | GGTGTCGGTC | 0.956 ± 0.049
15 | GGTGTGCATA | 0.994 ± 0.028
16 | GGTGTGCATG | 0.99 ± 0.053
17 | GGTGTGCTTT | 1.02 ± 0.025
18 | GGTGTGGGCA | 0.998 ± 0.041
19 | GGTGTGGTGG | 1.01 ± 0.027
20 | GGTGTGTTCT | 0.985 ± 0.011
21 | GGTGTTACTG | 1.03 ± 0.048
22 | GGTGTTCGCA | 1.02 ± 0.014
23 | GGTGTTCGGA | 1 ± 0.031
24 | GGTGTTGAAG | 0.986 ± 0.044
25 | GGTGTTGTTT | 0.963 ± 0.019

Row | Sequence | switch fluorescence ratio
26 | GGTGTTTATG | 0.9841 ± 0.0034
27 | GGTGTTTTAG | 0.989 ± 0.021
28 | GGTGTTTTTG | 1.05 ± 0.054
29 | GGTTAAAGAG | 0.9868 ± 0.008
30 | GGTTAACTTG | 0.975 ± 0.034
31 | GGTTAAGAAC | 0.993 ± 0.019
32 | GGTTAATGTT | 0.998 ± 0.026
33 | GGTTAATTAA | 1.03 ± 0.019
34 | GGTTAATTAC | 1.02 ± 0.034
35 | GGTTAATTTT | 1.02 ± 0.028
36 | GGTTACCTTT | 0.996 ± 0.042
37 | GGTTACGGGT | 0.994 ± 0.057
38 | GGTTAGCGTC | 1.03 ± 0.059
39 | GGTTAGGAAA | 0.998 ± 0.021
40 | GGTTAGGCAT | 1 ± 0.0058
41 | GGTTAGTGGG | 0.998 ± 0.017
42 | GGTTATAGTA | 0.989 ± 0.042
43 | GGTTATGTTG | 0.977 ± 0.047
44 | GGTTATTAAA | 0.998 ± 0.01
45 | GGTTCAAAGT | 0.9703 ± 0.0047
46 | GGTTCAGCCT | 1.01 ± 0.018
47 | GGTTCATACG | 1.008 ± 0.0041
48 | GGTTCATGTG | 1.01 ± 0.015
49 | GGTTCCATGC | 1.1 ± 0.014
50 | GGTTCGAAGG | 0.95 ± 0.032

Row | Sequence | switch fluorescence ratio
51 | GGTTCGCAGC | 1.15 ± 0.025
52 | GGTTCGGGGA | 0.98 ± 0.019
53 | GGTTCGTGGG | 1.01 ± 0.02
54 | GGTTCTAGTG | 0.968 ± 0.025
55 | GGTTCTCAGT | 0.988 ± 0.0097
56 | GGTTCTCTAG | 0.976 ± 0.01
57 | GGTTCTTCAA | 1.01 ± 0.023
58 | GGTTGAACAT | 0.9661 ± 0.0027
59 | GGTTGACTCT | 1.01 ± 0.029
60 | GGTTGCAGCC | 1.02 ± 0.026
61 | GGTTGCTGTC | 0.964 ± 0.045
62 | GGTTGGAAAA | 1.0226 ± 0.00079
63 | GGTTGGAGGC | 1.03 ± 0.067
64 | GGTTGGCATG | 0.952 ± 0.03
65 | GGTTGGCGTC | 0.955 ± 0.041
66 | GGTTGGCTCG | 1 ± 0.025
67 | GGTTGGGCTT | 0.979 ± 0.012
68 | GGTTGGGTGG | 0.986 ± 0.03
69 | GGTTGGTACG | 1.01 ± 0.019
70 | GGTTGGTGCG | 1.1 ± 0.074
71 | GGTTGTAAAA | 0.9867 ± 0.0092
72 | GGTTGTAAGG | 1.01 ± 0.033
73 | GGTTGTATTT | 0.962 ± 0.06
74 | GGTTGTGGCT | 0.9883 ± 0.0059
75 | GGTTGTTGGA | 0.999 ± 0.0057

Row | Sequence | switch fluorescence ratio
76 | GGTTTAAATA | 1.003 ± 0.0092
77 | GGTTTAAGGG | 0.972 ± 0.023
78 | GGTTTACGCT | 0.996 ± 0.027
79 | GGTTTAGACT | 0.99 ± 0.036
80 | GGTTTAGGAC | 0.971 ± 0.016
81 | GGTTTAGGTG | 1.14 ± 0.059
82 | GGTTTATTTT | 0.9946 ± 0.0013
83 | GGTTTCAAAA | 0.99668 ± 0.00038
84 | GGTTTCAGTG | 1.01 ± 0.025
85 | GGTTTCGAAT | 0.98 ± 0.049
86 | GGTTTCGGTG | 1.008 ± 0.0098
87 | GGTTTCGTAG | 1.01 ± 0.027
88 | GGTTTCTCGG | 1.019 ± 0.0092
89 | GGTTTCTTGC | 1.02 ± 0.011
90 | GGTTTGCAGG | 0.967 ± 0.05
91 | GGTTTGCGGC | 0.994 ± 0.036
92 | GGTTTGGAGA | 1.024 ± 0.0091
93 | GGTTTGGCGA | 0.988 ± 0.044
94 | GGTTTGGGTA | 1.01 ± 0.0044
95 | GGTTTGTATG | 0.976 ± 0.021
96 | GGTTTTAAAA | 0.99 ± 0.013
97 | GGTTTTATGT | 0.984 ± 0.032
98 | GGTTTTCATT | 0.951 ± 0.053
99 | GGTTTTCCGT | 1.07 ± 0.051
100 | GGTTTTCCTG | 0.975 ± 0.014

Row | Sequence | switch fluorescence ratio
101 | GGTTTTCTAA | 0.9838 ± 0.0051
102 | GGTTTTCTTT | 1 ± 0.035
103 | GGTTTTGCGG | 0.997 ± 0.029
104 | GGTTTTGCTG | 1.05 ± 0.053
105 | GGTTTTGGAT | 0.986 ± 0.019
106 | GGTTTTGTTA | 1.03 ± 0.086
107 | GGTTTTTCCG | 1.03 ± 0.033
108 | GGTTTTTTGA | 1.01 ± 0.038
109 | GGTTTTTTGG | 0.98 ± 0.021
110 | GGTTTTTTTA | 0.983 ± 0.032
111 | GTAAAAATTG | 0.986 ± 0.028
112 | GTAACATGGG | 0.973 ± 0.021
113 | GTAACGGAAC | 1.13 ± 0.018
114 | GTAACGTAAG | 1.03 ± 0.034
115 | GTAAGAGCGT | 0.996 ± 0.041
116 | GTAAGGAAGG | 0.989 ± 0.012
117 | GTAAGGGGGG | 0.994 ± 0.028
118 | GTAAGGGGGT | 0.9731 ± 0.0091
119 | GTAAGGGGTG | 1.01 ± 0.014
120 | GTAAGGGGTT | 1.033 ± 0.0064
121 | GTAAGTCATT | 1 ± 0.029
122 | GTAATATGCG | 0.987 ± 0.018
123 | GTAATATGTG | 0.991 ± 0.013
124 | GTAATCTGTT | 0.989 ± 0.075
125 | GTAATGAGGT | 1.01 ± 0.024

Row | Sequence | switch fluorescence ratio
126 | GTAATGGACC | 1.03 ± 0.043
127 | GTAATGGTTT | 1.07 ± 0.17
128 | GTAATGTATC | 1.03 ± 0.046
129 | GTACTTGGGA | 1.04 ± 0.074
130 | GTAGAGGGGA | 1.02 ± 0.016
131 | GTAGATAGTT | 1.02 ± 0.036
132 | GTAGCAAGGG | 2.38 ± 1.9
133 | GTAGCCTGGT | 0.989 ± 0.041
134 | GTAGCTCTTA | 1.04 ± 0.019
135 | GTAGGAAATA | 1.02 ± 0.02
136 | GTAGGAGGTA | 0.9807 ± 0.0039
137 | GTAGGCAACA | 1.01 ± 0.068
138 | GTAGGGACCG | 0.909 ± 0.025
139 | GTAGGGAGCA | 1.02 ± 0.022
140 | GTAGGGATAG | 1.02 ± 0.057
141 | GTAGGGGACA | 1.06 ± 0.012
142 | GTAGGGGAGC | 0.977 ± 0.06
143 | GTAGGGGCCT | 1.057 ± 0.0073
144 | GTAGGGGGAG | 0.9884 ± 0.004
145 | GTAGGGGTAA | 0.974 ± 0.036
146 | GTAGGGGTAC | 1.47 ± 0.72
147 | GTAGGGGTTT | 0.998 ± 0.034
148 | GTAGGGTGTG | 0.973 ± 0.041
149 | GTAGGTAGCG | 0.984 ± 0.031
150 | GTAGGTAGTT | 1.09 ± 0.14

Row | Sequence | switch fluorescence ratio
151 | GTAGTAAAGG | 0.9867 ± 0.0034
152 | GTAGTCCAGG | 1.27 ± 0.082
153 | GTAGTCGTAC | 1.11 ± 0.064
154 | GTAGTGCAAT | 1.1 ± 0.018
155 | GTAGTTAATG | 0.984 ± 0.038
156 | GTAGTTGGAG | 0.992 ± 0.034
157 | GTATAAATGG | 0.978 ± 0.023
158 | GTATAAGTTG | 1.02 ± 0.047
159 | GTATATATAG | 1.02 ± 0.03
160 | GTATCAGGCC | 0.992 ± 0.01
161 | GTATCGAGAG | 1.01 ± 0.013
162 | GTATCGTACG | 0.984 ± 0.014
163 | GTATCTGGGG | 0.998 ± 0.059
164 | GTATGAATGG | 0.984 ± 0.049
165 | GTATGCCGGG | 0.939 ± 0.057
166 | GTATGCTTTT | 1.034 ± 0.0043
167 | GTATGGAGGG | 1.02 ± 0.029
168 | GTATGGCTGG | 0.976 ± 0.044
169 | GTATGTAGCG | 0.987 ± 0.027
170 | GTATGTATTT | 0.986 ± 0.021
171 | GTATGTTAGG | 1.0143 ± 0.00055
172 | GTATTAGGGC | 1.02 ± 0.0034
173 | GTATTATAGG | 1.006 ± 0.0042
174 | GTATTCTCCA | 1.018 ± 0.0043
175 | GTATTTAGGG | 1.03 ± 0.039

Row | Sequence | switch fluorescence ratio
176 | GTATTTGGGC | 0.994 ± 0.012
177 | GTATTTGTTC | 1.01 ± 0.034
178 | GTATTTTTGA | 1.003 ± 0.0091
179 | GTATTTTTGC | 1.02 ± 0.024
180 | GTCAAACGGA | 0.986 ± 0.018
181 | GTCAAAGGGT | 0.99 ± 0.022
182 | GTCAATTAGG | 0.997 ± 0.024
183 | GTCACCAGGG | 1.58 ± 0.082
184 | GTCACGGGGG | 1.026 ± 0.0027
185 | GTCAGAGGGG | 0.979 ± 0.028
186 | GTCAGATAGG | 1.004 ± 0.008
187 | GTCAGGGGTG | 1.04 ± 0.052
188 | GTCATGCGTG | 0.974 ± 0.044
189 | GTCATTGGGT | 0.99 ± 0.021
190 | GTCATTTTGG | 1.03 ± 0.036
191 | GTCCGGGGGG | 1.26 ± 0.015
192 | GTCCTCGCAT | 4.8 ± 0.54
193 | GTCCTGGGGC | 0.9947 ± 0.0014
194 | GTCGAAAGGG | 1.01 ± 0.05
195 | GTCGAAAGGT | 0.984 ± 0.019
196 | GTCGAAGGGT | 1 ± 0.048
197 | GTCGACAGCG | 1.02 ± 0.035
198 | GTCGAGGGAA | 0.995 ± 0.022
199 | GTCGAGGGTC | 0.944 ± 0.03
200 | GTCGATAGCG | 0.984 ± 0.015
